Results taken from the supplement of paper PMC9112550, “Optimization of the antimicrobial peptide Bac7 by deep mutational scanning” (BMC Biology, 2022).

Tested on: Escherichia coli TOP10
Assay: shrunken log2 fold change of peptide-encoding DNA abundance (4.5 h post-induction vs induction); higher = less antimicrobial activity (less host growth inhibition)
Details: time post-induction: 4.5 h; library: site-saturation at positions 5, 18, 19, 20
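Also: peptides expressed intracellularly from a pBAD plasmid library in pooled LB shake-flask culture, induced with 0.3% L-arabinose, DNA abundance read by NGS, three biological replicates, DESeq2 with apeglm shrinkage.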

Sequence | shrunken log2 fold change
RRIRVRPPRLPRPRPRPSVRPRP | -0.297
RRIRTRPPRLPRPRPRPMCFPRP | 0.0222
RRIRLRPPRLPRPRPRPMAWPRP | -0.0215
RRIRDRPPRLPRPRPRPKNPPRP | -0.128
RRIRIRPPRLPRPRPRPKQDPRP | -0.354
RRIRARPPRLPRPRPRPIENPRP | 0.203
RRIRNRPPRLPRPRPRPLHHPRP | -0.39
RRIRERPPRLPRPRPRPPMWPRP | 0.245
RRIRHRPPRLPRPRPRPPQIPRP | -0.0667
RRIRNRPPRLPRPRPRPWYVPRP | -0.097
RRIRTRPPRLPRPRPRPPRMPRP | 0.165
RRIRKRPPRLPRPRPRPFNVPRP | -0.172
RRIRKRPPRLPRPRPRPPWTPRP | 0.527
RRIRARPPRLPRPRPRPGILPRP | 0.287
RRIRNRPPRLPRPRPRPRDGPRP | 0.292
RRIRDRPPRLPRPRPRPTIMPRP | -0.347
RRIRWRPPRLPRPRPRPWEAPRP | 0.396
RRIRERPPRLPRPRPRPVHMPRP | -0.0419
RRIRSRPPRLPRPRPRPLRCPRP | 0.435
RRIRLRPPRLPRPRPRPADTPRP | -0.538
RRIRIRPPRLPRPRPRPNYPPRP | -0.565
RRIRQRPPRLPRPRPRPQVIPRP | -0.0697

Sequence | shrunken log2 fold change
RRIRPRPPRLPRPRPRPPHSPRP | 1.31
RRIRGRPPRLPRPRPRPCCEPRP | 0.528
RRIRNRPPRLPRPRPRPIPQPRP | -0.35
RRIRRRPPRLPRPRPRPQNCPRP | -0.275
RRIRFRPPRLPRPRPRPMQLPRP | 0.0166
RRIRSRPPRLPRPRPRPFKMPRP | -0.357
RRIRKRPPRLPRPRPRPKTAPRP | 0.2
RRIRVRPPRLPRPRPRPISEPRP | -0.282
RRIRCRPPRLPRPRPRPAREPRP | 0.0467
RRIRVRPPRLPRPRPRPGNAPRP | 0.133
RRIRERPPRLPRPRPRPVYRPRP | -0.514
RRIRARPPRLPRPRPRPLVSPRP | 0.653
RRIRIRPPRLPRPRPRPYYIPRP | -0.552
RRIRARPPRLPRPRPRPFYHPRP | -0.462
RRIRLRPPRLPRPRPRPNIGPRP | -0.00419
RRIRFRPPRLPRPRPRPNHGPRP | -0.4
RRIRLRPPRLPRPRPRPMVKPRP | -0.147
RRIRMRPPRLPRPRPRPRGFPRP | 0.045
RRIRSRPPRLPRPRPRPPWTPRP | 0.319
RRIRARPPRLPRPRPRPVARPRP | 0.647
RRIRWRPPRLPRPRPRPFKHPRP | -0.405
RRIRERPPRLPRPRPRPLMTPRP | -0.295

Sequence | shrunken log2 fold change
RRIRNRPPRLPRPRPRPFGDPRP | 0.0215
RRIRDRPPRLPRPRPRPYCGPRP | 0.0637
RRIRVRPPRLPRPRPRPPIRPRP | -0.0403
RRIRNRPPRLPRPRPRPQCYPRP | -0.136
RRIRKRPPRLPRPRPRPGFFPRP | 0.786
RRIRKRPPRLPRPRPRPDAGPRP | -0.034
RRIRDRPPRLPRPRPRPIHLPRP | -0.0597
RRIRHRPPRLPRPRPRPEIPPRP | -0.111
RRIRFRPPRLPRPRPRPILLPRP | -0.554
RRIRQRPPRLPRPRPRPRCTPRP | -0.172
RRIRTRPPRLPRPRPRPKPPPRP | 0.353
RRIRRRPPRLPRPRPRPHHWPRP | 0.0825
RRIRLRPPRLPRPRPRPAQYPRP | -0.0702
RRIRIRPPRLPRPRPRPWIQPRP | -0.318
RRIRWRPPRLPRPRPRPYLFPRP | -0.31
RRIRQRPPRLPRPRPRPVNWPRP | 0.472
RRIRVRPPRLPRPRPRPDPSPRP | 0.226
RRIRHRPPRLPRPRPRPLTGPRP | -0.00273
RRIRLRPPRLPRPRPRPGLAPRP | 0.164
RRIRGRPPRLPRPRPRPVIQPRP | 0.0682
RRIRLRPPRLPRPRPRPDLRPRP | -0.0717
RRIRRRPPRLPRPRPRPEEAPRP | 1.51

Sequence | shrunken log2 fold change
RRIRERPPRLPRPRPRPPHFPRP | 0.568
RRIRHRPPRLPRPRPRPNASPRP | 0.0449
RRIRMRPPRLPRPRPRPYCSPRP | -0.122
RRIRRRPPRLPRPRPRPNGSPRP | 0.183
RRIRMRPPRLPRPRPRPNEIPRP | 0.0871
RRIRCRPPRLPRPRPRPSSFPRP | -0.0694
RRIRWRPPRLPRPRPRPVNLPRP | -0.291
RRIRGRPPRLPRPRPRPTPTPRP | 0.98
RRIRMRPPRLPRPRPRPDGRPRP | -0.00101
RRIRMRPPRLPRPRPRPNGAPRP | 0.0765
RRIRQRPPRLPRPRPRPLANPRP | -0.00739
RRIRPRPPRLPRPRPRPRRYPRP | -0.0175
RRIRRRPPRLPRPRPRPSCIPRP | -0.596
RRIRKRPPRLPRPRPRPVLGPRP | 0.977
RRIRPRPPRLPRPRPRPHFIPRP | -0.468
RRIRERPPRLPRPRPRPMGVPRP | 0.22
RRIRFRPPRLPRPRPRPHQSPRP | -0.114
RRIRSRPPRLPRPRPRPHSAPRP | -0.891
RRIRCRPPRLPRPRPRPLKTPRP | -0.0197
RRIRNRPPRLPRPRPRPRFFPRP | -0.0927
RRIRNRPPRLPRPRPRPSQFPRP | -0.16
RRIRMRPPRLPRPRPRPFAMPRP | 0.171

Sequence | shrunken log2 fold change
RRIRMRPPRLPRPRPRPVNRPRP | 0.105
RRIRARPPRLPRPRPRPCAGPRP | 0.477
RRIRSRPPRLPRPRPRPYQSPRP | 0.0187
RRIRTRPPRLPRPRPRPVSCPRP | -0.206
RRIRKRPPRLPRPRPRPRMAPRP | 0.818
RRIRHRPPRLPRPRPRPDWEPRP | -0.00783
RRIRPRPPRLPRPRPRPGCRPRP | 0.289
RRIRFRPPRLPRPRPRPYTNPRP | -1.17
RRIRRRPPRLPRPRPRPEAPPRP | 0.708
RRIRPRPPRLPRPRPRPTSYPRP | -0.0178
RRIRDRPPRLPRPRPRPCYMPRP | -0.192
RRIRERPPRLPRPRPRPWFIPRP | -0.00655
RRIRGRPPRLPRPRPRPCDGPRP | 0.123
RRIRDRPPRLPRPRPRPQYMPRP | 0.0516
RRIRSRPPRLPRPRPRPMLCPRP | -0.121
RRIRDRPPRLPRPRPRPQDGPRP | 0.0175
RRIRNRPPRLPRPRPRPVHTPRP | 0.0171
RRIRIRPPRLPRPRPRPAPEPRP | 1.9
RRIRRRPPRLPRPRPRPCFSPRP | -0.14
RRIRMRPPRLPRPRPRPWMNPRP | -0.00973
RRIRVRPPRLPRPRPRPHIWPRP | -0.244
